B1: Claudin-19 (Mus musculus), Q9ET38 (parent)
chain: MANSGLQLLGYFLALGGWVGIIASTALPQWKQSSYAGDAIITAVGLYEGLWMSCASQSTGQVQCKLYDSLLALDGHIQSARALMVVAVLLGFVAMVLSVVGMKCTRVGDSNPTAKSRVAISGGALFLLAGLCTLTAVSWYATLVTQEFFNPSTPVNARYEFGPALFVGWASAGLAMLGGSFLCCTCPEPERANSIPQPYRSGPSTAAREPVVKLPASVKGPLGV

Variants of: B1
Settings: with eltb_clopf cpe
MANSGLQLLGYFLALGGWVGIIASTALPQWKQSSYAGDRIITAVGLYEGLWMSCASQSTGQVQCKLYDSLLALDGHIQSARALMVVAVLLGFVAMVLSVVGMKCTRVGDSNPTAKSRVAISGGALFLLAGLCTLTAVSWYATLVTQEFFNPSTPVNARYEFGPALFVGWASAGLAMLGGSFLCCTCPEPERANSIPQPYRSGPSTAAREPVVKLPASVKGPLGV [A39R] was tested, and the “effect of a mutation on the interaction” value was “decreasing interaction strength”.
MANSGLQLLGYFLALGGWVGIIASTALPQWKQSSYAGDSIITAVGLYEGLWMSCASQSTGQVQCKLYDSLLALDGHIQSARALMVVAVLLGFVAMVLSVVGMKCTRVGDSNPTAKSRVAISGGALFLLAGLCTLTAVSWYATLVTQEFFNPSTPVNARYEFGPALFVGWASAGLAMLGGSFLCCTCPEPERANSIPQPYRSGPSTAAREPVVKLPASVKGPLGV [A39S] was tested, and the “effect of a mutation on the interaction” value was “decreasing interaction strength”.
MANSGLQLLGYFLALGGWVGIIASTALPQWKQSSYAGDASITAVGLYEGLWMSCASQSTGQVQCKLYDSLLALDGHIQSARALMVVAVLLGFVAMVLSVVGMKCTRVGDSNPTAKSRVAISGGALFLLAGLCTLTAVSWYATLVTQEFFNPSTPVNARYEFGPALFVGWASAGLAMLGGSFLCCTCPEPERANSIPQPYRSGPSTAAREPVVKLPASVKGPLGV [I40S] was tested, and the “effect of a mutation on the interaction” value was “decreasing interaction strength”.
In the case of MANSGLQLLGYFLALGGWVGIIASTALPQWKQSSYAGDAVITAVGLYEGLWMSCASQSTGQVQCKLYDSLLALDGHIQSARALMVVAVLLGFVAMVLSVVGMKCTRVGDSNPTAKSRVAISGGALFLLAGLCTLTAVSWYATLVTQEFFNPSTPVNARYEFGPALFVGWASAGLAMLGGSFLCCTCPEPERANSIPQPYRSGPSTAAREPVVKLPASVKGPLGV [I40V], the “effect of a mutation on the interaction” value is reported as “decreasing interaction strength”.
With MANSGLQLLGYFLALGGWVGIIASTALPQWKQSSYAGDALITAVGLYEGLWMSCASQSTGQVQCKLYDSLLALDGHIQSARALMVVAVLLGFVAMVLSVVGMKCTRVGDSNPTAKSRVAISGGALFLLAGLCTLTAVSWYATLVTQEFFNPSTPVNARYEFGPALFVGWASAGLAMLGGSFLCCTCPEPERANSIPQPYRSGPSTAAREPVVKLPASVKGPLGV [I40L] the “effect of a mutation on the interaction” value was “decreasing interaction strength”.
With MANSGLQLLGYFLALGGWVGIIASTALPQWKQSSYAGDAAITAVGLYEGLWMSCASQSTGQVQCKLYDSLLALDGHIQSARALMVVAVLLGFVAMVLSVVGMKCTRVGDSNPTAKSRVAISGGALFLLAGLCTLTAVSWYATLVTQEFFNPSTPVNARYEFGPALFVGWASAGLAMLGGSFLCCTCPEPERANSIPQPYRSGPSTAAREPVVKLPASVKGPLGV [I40A] the “effect of a mutation on the interaction” value was “decreasing interaction strength”.
MANSGLQLLGYFLALGGWVGIIASTALPQWKQSSSAGDAIITAVGLYEGLWMSCASQSTGQVQCKLYDSLLALDGHIQSARALMVVAVLLGFVAMVLSVVGMKCTRVGDSNPTAKSRVAISGGALFLLAGLCTLTAVSWYATLVTQEFFNPSTPVNARYEFGPALFVGWASAGLAMLGGSFLCCTCPEPERANSIPQPYRSGPSTAAREPVVKLPASVKGPLGV [Y35S] was tested, and the “effect of a mutation on the interaction” value was “decreasing interaction strength”.
With MANSGLQLLGYFLALGGWVGIIASTALPQWKQSSYAGDAIITAVGLYEGLWMSCASQSTGQVQCKLYDSLLALDGHIQSARALMVVAVLLGFVAMVLSVVGMKCTRVGDSNPTAKSRVAISGGALFLLAGLCTLTAVSWYATLVTQEFFLPSTPVNARYEFGPALFVGWASAGLAMLGGSFLCCTCPEPERANSIPQPYRSGPSTAAREPVVKLPASVKGPLGV [N150L] the “effect of a mutation on the interaction” value was “decreasing interaction strength”.
With MANSGLQLLGYFLALGGWVGIIASTALPQWKQSSYAGDAIITAVGLYEGLWMSCASQSTGQVQCKLYDSLLALDGHIQSARALMVVAVLLGFVAMVLSVVGMKCTRVGDSNPTAKSRVAISGGALFLLAGLCTLTAVSWYATLVTQEFFDPSTPVNARYEFGPALFVGWASAGLAMLGGSFLCCTCPEPERANSIPQPYRSGPSTAAREPVVKLPASVKGPLGV [N150D] the “effect of a mutation on the interaction” value was “decreasing interaction strength”.
In the case of MANSGLQLLGYFLALGGWVGIIASTALPQWKQSSYAGDAIITAVGLYEGLWMSCASQSTGQVQCKLYDSLLALDGHIQSARALMVVAVLLGFVAMVLSVVGMKCTRVGDSNPTAKSRVAISGGALFLLAGLCTLTAVSWYATLVTQEFFAPSTPVNARYEFGPALFVGWASAGLAMLGGSFLCCTCPEPERANSIPQPYRSGPSTAAREPVVKLPASVKGPLGV [N150A], the “effect of a mutation on the interaction” value is reported as “decreasing interaction strength”.
In the case of MANSGLQLLGYFLALGGWVGIIASTALPQWKQSSYAGDAIITAVGLYEGLWMSCASQSTGQVQCKLYDSLLALDGHIQSARALMVVAVLLGFVAMVLSVVGMKCTRVGDSNPTAKSRVAISGGALFLLAGLCTLTAVSWYATLVTQEFFQPSTPVNARYEFGPALFVGWASAGLAMLGGSFLCCTCPEPERANSIPQPYRSGPSTAAREPVVKLPASVKGPLGV [N150Q], the “effect of a mutation on the interaction” value is reported as “decreasing interaction strength”.
With MANSGLQLLGYFLALGGWVGIIASTALPQWKQSSYAGDAIITAVGLYEGLWMSCASQSTGQVQCKLYDSLLALDGHIQSARALMVVAVLLGFVAMVLSVVGMKCTRVGDSNPTAKSRVAISGGALFLLAGLCTLTAVSWYATLVTQEFFSPSTPVNARYEFGPALFVGWASAGLAMLGGSFLCCTCPEPERANSIPQPYRSGPSTAAREPVVKLPASVKGPLGV [N150S] the “effect of a mutation on the interaction” value was “decreasing interaction strength”.
MANSGLQLLGYFLALGGWVGIIASTALPQWKQSSYAGDAIITAVGLYEGLWMSCASQSTGQVQCKLYDSLLALDGHIQSARALMVVAVLLGFVAMVLSVVGMKCTRVGDSNPTAKSRVAISGGALFLLAGLCTLTAVSWYATLVTQEFFKPSTPVNARYEFGPALFVGWASAGLAMLGGSFLCCTCPEPERANSIPQPYRSGPSTAAREPVVKLPASVKGPLGV [N150K] was tested, and the “effect of a mutation on the interaction” value was “decreasing interaction strength”.
MANSGLQLLGYFLALGGWVGIIASTALPQWKQSSYAGDAIITAVGLYEGLWMSCASQSTGQVQCKLYDSLLALDGHIQSARALMVVAVLLGFVAMVLSVVGMKCTRVGDSNPTAKSRVAISGGALFLLAGLCTLTAVSWYATLVTQEFFNPSTPVGARYEFGPALFVGWASAGLAMLGGSFLCCTCPEPERANSIPQPYRSGPSTAAREPVVKLPASVKGPLGV [N156G] was tested, and the “effect of a mutation on the interaction” value was “decreasing interaction strength”.
With MANSGLQLLGYFLALGGWVGIIASTALPQWKQSSYAGDAIITAVGLYEGLWMSCASQSTGQVQCKLYDSLLALDGHIQSARALMVVAVLLGFVAMVLSVVGMKCTRVGDSNPTAKSRVAISGGALFLLAGLCTLTAVSWYATLVTQEFFNPDTPVNARYEFGPALFVGWASAGLAMLGGSFLCCTCPEPERANSIPQPYRSGPSTAAREPVVKLPASVKGPLGV [S152D] the “effect of a mutation on the interaction” value was “decreasing interaction strength”.
In the case of MANSGLQLLGYFLALGGWVGIIASTALPQWKQSSYAGDAIITAVGLYEGLWMSCASQSTGQVQCKLYDSLLALDGHIQSARALMVVAVLLGFVAMVLSVVGMKCTRVGDSNPTAKSRVAISGGALFLLAGLCTLTAVSWYATLVTQEFFNPSYPVNARYEFGPALFVGWASAGLAMLGGSFLCCTCPEPERANSIPQPYRSGPSTAAREPVVKLPASVKGPLGV [T153Y], the “effect of a mutation on the interaction” value is reported as “decreasing interaction strength”.
In the case of MANSGLQLLGYFLALGGWVGIIASTALPQWKQSSYAGDAIITAVGLYEGLWMSCASQSTGQVQCKLYDSLLALDGHIQSARALMVVAVLLGFVAMVLSVVGMKCTRVGDSNPTAKSRVAISGGALFLLAGLCTLTAVSWYATLVTQEFFNPSTAVNARYEFGPALFVGWASAGLAMLGGSFLCCTCPEPERANSIPQPYRSGPSTAAREPVVKLPASVKGPLGV [P154A], the “effect of a mutation on the interaction” value is reported as “decreasing interaction strength”.
With MANSGLQLLGYFLALGGWVGIIASTALPQWKQSSYAGDAIITAVGLYEGLWMSCASQSTGQVQCKLYDSLLALDGHIQSARALMVVAVLLGFVAMVLSVVGMKCTRVGDSNPTAKSRVAISGGALFLLAGLCTLTAVSWYATLVTQEFFNPSTDVNARYEFGPALFVGWASAGLAMLGGSFLCCTCPEPERANSIPQPYRSGPSTAAREPVVKLPASVKGPLGV [P154D] the “effect of a mutation on the interaction” value was “decreasing interaction strength”.
In the case of MANSGLQLLGYFLALGGWVGIIASTALPQWKQSSYAGDAIITAVGLYEGLWMSCASQSTGQVQCKLYDSLLALDGHIQSARALMVVAVLLGFVAMVLSVVGMKCTRVGDSNPTAKSRVAISGGALFLLAGLCTLTAVSWYATLVTQEFFNPSTPVNARFEFGPALFVGWASAGLAMLGGSFLCCTCPEPERANSIPQPYRSGPSTAAREPVVKLPASVKGPLGV [Y159F], the “effect of a mutation on the interaction” value is reported as “decreasing interaction strength”.
MANSGLQLLGYFLALGGWVGIIASTALPQWKQSSYAGDAIITAVGLYEGLWMSCASQSTGQVQCKLYDSLLALDGHIQSARALMVVAVLLGFVAMVLSVVGMKCTRVGDSNPTAKSRVAISGGALFLLAGLCTLTAVSWYATLVTQEFFNPSTPVNARSEFGPALFVGWASAGLAMLGGSFLCCTCPEPERANSIPQPYRSGPSTAAREPVVKLPASVKGPLGV [Y159S] was tested, and the “effect of a mutation on the interaction” value was “decreasing interaction strength”.
In the case of MANSGLQLLGYFLALGGWVGIIASTALPQWKQSSYAGDAIITAVGLYEGLWMSCASQSTGQVQCKLYDSLLALDGHIQSARALMVVAVLLGFVAMVLSVVGMKCTRVGDSNPTAKSRVAISGGALFLLAGLCTLTAVSWYATLVTQEFFNGSTPVNARYEFGPALFVGWASAGLAMLGGSFLCCTCPEPERANSIPQPYRSGPSTAAREPVVKLPASVKGPLGV [P151G], the “effect of a mutation on the interaction” value is reported as “decreasing interaction strength”.
With MANSGLQLLGYFLALGGWVGIIASTALPQWKQSSYAGDAIITAVGLYEGLWMSCASQSTGQVQCKLYDSLLALDGHIQSARALMVVAVLLGFVAMVLSVVGMKCTRVGDSNPTAKSRVAISGGALFLLAGLCTLTAVSWYATLVTQEFFNASTPVNARYEFGPALFVGWASAGLAMLGGSFLCCTCPEPERANSIPQPYRSGPSTAAREPVVKLPASVKGPLGV [P151A] the “effect of a mutation on the interaction” value was “decreasing interaction strength”.
For MANSGLQLLGYFLALGGWVGIIASTALPQWKQSSYAGDAISTAVGLYEGLWMSCASQSTGQVQCKLYDSLLALDGHIQSARALMVVAVLLGFVAMVLSVVGMKCTRVGDSNPTAKSRVAISGGALFLLAGLCTLTAVSWYATLVTQEFFNPSTPVNARYEFGPALFVGWASAGLAMLGGSFLCCTCPEPERANSIPQPYRSGPSTAAREPVVKLPASVKGPLGV [I41S], the “effect of a mutation on the interaction” value was “decreasing interaction strength”.
For MANSGLQLLGYFLALGGWVGIIASTALPQWKQSSYAGDAIVTAVGLYEGLWMSCASQSTGQVQCKLYDSLLALDGHIQSARALMVVAVLLGFVAMVLSVVGMKCTRVGDSNPTAKSRVAISGGALFLLAGLCTLTAVSWYATLVTQEFFNPSTPVNARYEFGPALFVGWASAGLAMLGGSFLCCTCPEPERANSIPQPYRSGPSTAAREPVVKLPASVKGPLGV [I41V], the “effect of a mutation on the interaction” value was “decreasing interaction strength”.
For MANSGLQLLGYFLALGGWVGIIASTALPQWKQSSYAGDAIATAVGLYEGLWMSCASQSTGQVQCKLYDSLLALDGHIQSARALMVVAVLLGFVAMVLSVVGMKCTRVGDSNPTAKSRVAISGGALFLLAGLCTLTAVSWYATLVTQEFFNPSTPVNARYEFGPALFVGWASAGLAMLGGSFLCCTCPEPERANSIPQPYRSGPSTAAREPVVKLPASVKGPLGV [I41A], the “effect of a mutation on the interaction” value was “decreasing interaction strength”.

Source: IntAct's records for PubMed 25678664
